In PMC3285296:

Experiments:
Test in all cases: co-IP
[1] = target: Flag-tagged glycogen phosphorylase (GP), wild type (human) (UniProt P06737)
[2] = target: Flag-tagged glycogen phosphorylase K470Q/K796Q (GP^K2Q) (human) (UniProt P06737)
[3] = target: Flag-tagged glycogen phosphorylase (GP), wild type (human) (UniProt P06737); remark: listed apart in the source

For “HA-tagged protein phosphatase 1 alpha (HA-PP1α) (from UniProt P62136 1-330) (enzyme)”, the increase of the co-precipitate with NAM+TSA against untreated cells [1] was > 100% and the PP1α co-immunoprecipitated, against wild type GP [2] was 2 fold.

B1: HA-tagged hepatic glycogen binding subunit GL of PP1 (HA-GL) (natural protein)
chain: MMAVDIEYRYNCMAPSLRQERFAFKISPKPSKPLRPCIQLSSKNEASGMVAPAVQEKKVKKRVSFADNQGLALTMVKVFSEFDDPLDMPFNITELLDNIVSLTTAESESFVLDFSQPSADYLDFRNRLQADHVCLENCVLKDKAIAGTVKVQNLAFEKTVKIRMTFDTWKSYTDFPCQYVKDTYAGSDRDTFSFDISLPEKIQSYERMEFAVYYECNGQTYWDSNRGKNYRIIRAELKSTQGMTKPHSGPDLGISFDQFGSPRCSYGLFPEWPSYLGYEKLGPYY
In the case of B1, the increase of the co-precipitate in 25 mM glucose against glucose free medium [3] is reported as 100%.
